The source of these data is PMC5871853, “First insights of peptidoglycan amidation in Gram-positive bacteria - the high-resolution crystal structure of Staphylococcus aureus glutamine amidotransferase GatD” (Scientific Reports, 2018).

In test [1] the target is S. aureus MurT-GatD complex (Staphylococcus aureus, UniProt A0A0H2WZ38). The note with it: 875 µM Gln, 35 µM complex, no lipid II; 50 mM Tris-d11, 500 mM NaCl, 10 mM MgCl2, pH meter reading 7.9 in D2O, 293 K.
A further test has as its target T1, S. aureus GatD (Staphylococcus aureus, UniProt A0A0H2WZ38).
T1 construct: full-length, 243 residues; pOPINF vector, E. coli Lemo21(DE3), IMAC and SEC; crystallised without MurT; dimer in crystal non-physiological
T1 sequence (A0A0H2WZ38 1-243): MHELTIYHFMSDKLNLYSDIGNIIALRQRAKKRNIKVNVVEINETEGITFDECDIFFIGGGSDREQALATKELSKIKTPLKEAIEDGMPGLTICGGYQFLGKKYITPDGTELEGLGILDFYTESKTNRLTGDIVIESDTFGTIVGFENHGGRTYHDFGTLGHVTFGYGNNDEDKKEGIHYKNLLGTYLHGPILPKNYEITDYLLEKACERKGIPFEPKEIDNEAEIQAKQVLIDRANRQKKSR
As to the kind of experiment: X-ray crystal structure, […] Å. As to conditions: co-purified glutamine; bound at surface of chain A to R128, outside the active site; MurT absent. The class given is binding.

For test [2], the target named is T2, S. aureus GatD wt (from pET28a-murT-gatD-His6) (Staphylococcus aureus strain COL, UniProt A0A0H2WZ38 1-243).
T2 construct: GatD, glutamine amidotransferase, Staphylococcus aureus strain COL, 243 amino acids; coding region amplified with murT as the murT-gatD operon; also called glutamine amidotransferase GatD
T2 sequence (looked up): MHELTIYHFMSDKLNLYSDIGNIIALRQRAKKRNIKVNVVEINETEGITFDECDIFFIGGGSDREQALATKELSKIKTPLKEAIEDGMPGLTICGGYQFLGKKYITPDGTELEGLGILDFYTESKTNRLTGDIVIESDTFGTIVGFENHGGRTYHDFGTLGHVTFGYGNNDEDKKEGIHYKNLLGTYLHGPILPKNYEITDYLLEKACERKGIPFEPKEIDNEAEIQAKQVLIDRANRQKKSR
The test can be described thus: co-purification (IMAC + SEC, SDS-PAGE); MurT and GatD-His6 co-expressed in E. coli from one plasmid; HisTrap then Superdex 200 in 100 mM Tris-HCl pH 8.2, 500 mM NaCl, 10 mM MgCl2, 5 mM 2-mercaptoethanol; molar ratio read from a 12% SDS-PAGE gel of the final samples. As to conditions: partners not purified.

For test [3], the target named is T3, S. aureus GatD C94A (from pET28a-murT-gatD-His6C94A) (Staphylococcus aureus strain COL, UniProt A0A0H2WZ38 1-243, C94A).
T3 sequence: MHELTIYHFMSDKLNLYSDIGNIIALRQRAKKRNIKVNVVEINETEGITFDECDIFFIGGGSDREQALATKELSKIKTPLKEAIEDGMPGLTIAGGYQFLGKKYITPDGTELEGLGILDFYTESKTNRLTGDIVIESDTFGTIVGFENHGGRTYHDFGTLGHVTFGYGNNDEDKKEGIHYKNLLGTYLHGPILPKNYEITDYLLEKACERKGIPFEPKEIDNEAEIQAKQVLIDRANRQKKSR
As to the kind of experiment: co-purification (IMAC + SEC, SDS-PAGE). As to conditions: partners not purified.

The target of test [4] is T4, S. aureus GatD H189A (from pET28a-murT-gatD-His6H189A) (Staphylococcus aureus strain COL, UniProt A0A0H2WZ38 1-243, H189A).
T4 sequence: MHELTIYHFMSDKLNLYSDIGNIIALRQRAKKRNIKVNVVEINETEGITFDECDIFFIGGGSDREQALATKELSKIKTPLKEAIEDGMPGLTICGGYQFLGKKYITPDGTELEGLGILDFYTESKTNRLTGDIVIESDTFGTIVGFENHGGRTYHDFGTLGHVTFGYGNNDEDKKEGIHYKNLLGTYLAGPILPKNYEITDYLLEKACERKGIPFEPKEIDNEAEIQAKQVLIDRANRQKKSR
The test can be described thus: co-purification (IMAC + SEC, SDS-PAGE). As to conditions: partners not purified.

The target of test [5] is T5, S. aureus GatD R128A (from pET28a-murT-gatD-His6R128A) (Staphylococcus aureus strain COL, UniProt A0A0H2WZ38 1-243, R128A).
T5 sequence: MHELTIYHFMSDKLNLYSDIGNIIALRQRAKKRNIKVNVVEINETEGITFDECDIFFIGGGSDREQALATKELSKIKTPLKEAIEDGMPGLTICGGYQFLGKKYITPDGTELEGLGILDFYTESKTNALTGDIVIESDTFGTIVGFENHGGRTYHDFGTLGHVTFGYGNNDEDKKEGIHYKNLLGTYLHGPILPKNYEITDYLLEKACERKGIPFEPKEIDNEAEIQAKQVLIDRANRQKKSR
The test can be described thus: co-purification (IMAC + SEC, SDS-PAGE). The note with it: partners not purified.

For the molecule `NC(=O)CC[C@H](N)C(=O)O` [glutamine], in test [1], the “1H-NMR glutaminase assay (Gln to Glu)” value is recorded as “MurT-GatD wt can convert glutamine into glutamate with a first order rate constant”. The “X-ray crystal structure, 1.85 Å” value on S. aureus GatD was “S. aureus GatD crystallized in the presence of its substrate, glutamine”.

B1: S. aureus MurT (enzyme, Staphylococcus aureus strain COL, UniProt A0A0H2WZQ7 1-437, looked up)
chain: MRQWTAIHLAKLARKASRAVGKRGTDLPGQIARKVDTDILRKLAEQVDDIVFISGTNGKTTTSNLIGHTLKANNIQIIHNNEGANMAAGITSAFIMQSTPKTKIAVIEIDEGSIPRVLKEVTPSMMVFTNFFRDQMDRFGEIDIMVNNIAETISNKGIKLLLNADDPFVSRLKIASDTIVYYGMKAHAHEFEQSTMNESRYCPNCGRLLQYDYIHYNQIGHYHCQCGFKREQAKYEISSFDVAPFLYLNINDEKYDMKIAGDFNAYNALAAYTVLRELGLNEQTIKNGFETYTSDNGRMQYFKKERKEAMINLAKNPAGMNASLSVGEQLEGEKVYVISLNDNAADGRDTSWIYDADFEKLSKQQIEAIIVTGTRAEELQLRLKLAEVEVPIIVERDIYKATAKTMDYKGFTVAIPNYTSLAPMLEQLNRSFEGGQS
notes: MurT, Mur ligase family member of the MurT-GatD complex, Staphylococcus aureus strain COL; coding region amplified with gatD as the murT-gatD operon
As for B1, the “stoichiometry N” value in test [2], in test [3], in test [4] and in test [5] was 1 MurT:GatD molar ratio each time.
